Values quoted from earlier work, collected in patent US8633160B2, “Small molecule inhibitors of PDZ interactions” (Nono Inc., priority 2005, dated 2014).

Assays:
[1] = target: N-type calcium channel (Homo sapiens, UniProt Q00975); settings: data of U.S. Provisional Application No. 60/904,507; cited from earlier work
[2] = system: middle cerebral artery occlusion (MCAO) model of stroke; settings: rat, previously tested; cited from earlier work

N-type calcium channel, sequence (Q00975 whole entry): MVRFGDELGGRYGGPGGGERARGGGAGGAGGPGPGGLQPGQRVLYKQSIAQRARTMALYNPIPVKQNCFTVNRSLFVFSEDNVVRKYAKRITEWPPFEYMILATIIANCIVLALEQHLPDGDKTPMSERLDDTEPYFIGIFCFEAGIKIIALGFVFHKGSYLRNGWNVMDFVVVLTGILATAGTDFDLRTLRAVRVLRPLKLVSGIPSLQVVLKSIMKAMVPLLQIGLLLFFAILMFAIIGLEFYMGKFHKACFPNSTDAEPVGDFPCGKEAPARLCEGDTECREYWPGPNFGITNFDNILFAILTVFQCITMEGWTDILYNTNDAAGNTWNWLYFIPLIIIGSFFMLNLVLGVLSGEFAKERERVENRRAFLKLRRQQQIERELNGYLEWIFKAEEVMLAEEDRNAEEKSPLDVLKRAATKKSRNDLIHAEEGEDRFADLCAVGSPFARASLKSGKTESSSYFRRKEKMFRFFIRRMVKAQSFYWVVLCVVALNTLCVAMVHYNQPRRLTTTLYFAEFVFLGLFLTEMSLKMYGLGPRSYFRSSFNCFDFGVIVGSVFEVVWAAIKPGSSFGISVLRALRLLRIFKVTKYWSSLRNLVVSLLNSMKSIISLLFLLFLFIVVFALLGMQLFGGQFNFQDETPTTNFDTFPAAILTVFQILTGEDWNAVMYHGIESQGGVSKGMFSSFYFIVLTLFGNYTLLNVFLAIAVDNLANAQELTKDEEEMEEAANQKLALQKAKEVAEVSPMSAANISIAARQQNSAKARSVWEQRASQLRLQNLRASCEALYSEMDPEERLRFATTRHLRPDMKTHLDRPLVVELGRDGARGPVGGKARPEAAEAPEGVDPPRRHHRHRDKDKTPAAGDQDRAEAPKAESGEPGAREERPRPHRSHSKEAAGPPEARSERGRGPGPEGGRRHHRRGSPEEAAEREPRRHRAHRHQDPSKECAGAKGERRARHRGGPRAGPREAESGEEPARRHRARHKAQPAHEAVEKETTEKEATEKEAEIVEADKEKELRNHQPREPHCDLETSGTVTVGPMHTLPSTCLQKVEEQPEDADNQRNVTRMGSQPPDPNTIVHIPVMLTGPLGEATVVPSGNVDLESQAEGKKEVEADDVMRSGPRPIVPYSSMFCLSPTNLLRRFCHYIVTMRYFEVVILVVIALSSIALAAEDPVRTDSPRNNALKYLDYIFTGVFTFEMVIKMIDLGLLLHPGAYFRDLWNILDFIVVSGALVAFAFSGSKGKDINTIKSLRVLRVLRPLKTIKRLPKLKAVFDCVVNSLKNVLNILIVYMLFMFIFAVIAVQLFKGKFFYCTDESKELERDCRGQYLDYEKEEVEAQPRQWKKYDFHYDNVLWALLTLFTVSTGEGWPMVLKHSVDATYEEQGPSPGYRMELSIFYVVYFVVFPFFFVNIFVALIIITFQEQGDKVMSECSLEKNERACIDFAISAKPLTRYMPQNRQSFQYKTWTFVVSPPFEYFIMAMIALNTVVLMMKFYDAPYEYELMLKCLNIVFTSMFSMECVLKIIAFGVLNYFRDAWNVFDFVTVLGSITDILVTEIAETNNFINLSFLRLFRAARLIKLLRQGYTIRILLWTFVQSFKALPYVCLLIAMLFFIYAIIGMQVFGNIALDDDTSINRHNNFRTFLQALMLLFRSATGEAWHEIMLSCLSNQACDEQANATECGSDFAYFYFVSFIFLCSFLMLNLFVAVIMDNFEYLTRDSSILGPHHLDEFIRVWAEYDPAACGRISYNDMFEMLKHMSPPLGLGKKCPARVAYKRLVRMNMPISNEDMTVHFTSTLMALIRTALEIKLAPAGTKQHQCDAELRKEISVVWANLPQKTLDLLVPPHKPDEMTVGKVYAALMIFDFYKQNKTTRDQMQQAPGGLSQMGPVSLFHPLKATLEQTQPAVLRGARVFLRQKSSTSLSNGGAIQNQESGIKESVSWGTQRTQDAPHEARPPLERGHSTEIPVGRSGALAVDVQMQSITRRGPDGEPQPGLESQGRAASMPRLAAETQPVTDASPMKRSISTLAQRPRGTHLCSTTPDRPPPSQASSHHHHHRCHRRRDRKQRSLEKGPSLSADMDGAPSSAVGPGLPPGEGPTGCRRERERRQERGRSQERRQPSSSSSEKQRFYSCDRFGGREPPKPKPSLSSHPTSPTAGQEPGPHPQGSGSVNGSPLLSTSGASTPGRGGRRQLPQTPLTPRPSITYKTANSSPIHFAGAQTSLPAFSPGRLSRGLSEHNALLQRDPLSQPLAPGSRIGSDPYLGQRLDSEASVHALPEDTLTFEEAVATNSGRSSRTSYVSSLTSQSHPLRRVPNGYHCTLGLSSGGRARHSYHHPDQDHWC

| Sequence | Inhibition of the N-type calcium channel [1] | Neuroprotection (infarct size) [2] |
| --- | --- | --- |
| YGRKKRRQRRR [Tat] | sufficient to induce the observed inhibition | – |
| YGRKKRRQRRRKLSSIESDV [Tat-NR2B9c, known neuroprotective peptide] | – | neuroprotective as seen by a reduced infarct size |
